Measured values published in the supplement of paper PMC9942255.
“And” between values parts separate entries of the source, which are not always exact repeats. Equal values may be shown once.

Test system: Bacillus subtilis DB104 (SP-AmyQ fusion secretion)
Assay: AmyQ secretion efficiency, weighted average sort bin (1 = best secretion, 10 = worst) (bin number (weighted average, 1-10)); higher = lower secretion efficiency
Method in brief: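 The secretion score was taken as the read-frequency-weighted mean bin number, normalised to beads per bin, with low-abundance sequences excluded. Bins came from large-particle flow cytometry sorting of occupied alginate beads (~65 nL, about 0.3 cells each, with fluorescein-starch) into 10 equally populated groups by green/red fluorescence ratio after about 13 h at room temperature and nile red staining. The cells were a B. subtilis DB104 library with mature AmyQ fused to designed signal peptides, integrated at amyE, and each bin's amplicons were Illumina-sequenced.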

Sequence	AmyQ secretion efficiency
MFNRLFRVCFLAALIMAFTLPNSVYYQKP	6.22
MKKELLASLVLCLSLKRRKRTNRVFAATT	7.57
MRFTKVVGFLSVLGLAAVFPLTAQAEED	1.95
MMKKLFHSTLRRRRFFSFFGVQPIHAKKQ	7.67
MKWMCSICCAAVLLAGGTAQAEAV	2.47
MRSYIKTFNVLTMCFLGLILFVPTALADNS	2.59
MKWMCSICCAAVLGAAQAEAV	4.75
MKRIRIPMTLALGAALTIAPLSFYSAEEN	5.14
MKVPKTMLKRTAAGLLLSLTATSVSAHYV	4.94
MKKAFLVFLSVVLVTTVFLVKQQEAQAKQL	2.1
MKKKLAAGLTASAIVGTTLVVTPAEVATI	6.56
MRKKLKWLSFLLGFIILLFLFKYQPSNNDS	7.17
MTMLRKIIGWILLLCIIPLFAFTVIRSGKEV	7.52
MNLRKILLSSALSLGMLVSAAPTLATSS	2.34
MRPVFPLILSAVLFLSCFFGAREASASKR	1.24
MNKFLKSNFRFLLAAALGISLLKRSNFIKASND	6.59
MPIKKKVMMCLAVTLVFGSMSFPTLTNSGGFSG	3.08
MLKKIALTLCPAIVGSLLFFTGPASAHVS	2.54
MKSKGSIMACLILFSFTITTFINTETISHFSN	7.54
MKKSQYFIVFICFFVLFSVHPIAAAAASS	2.35
MKKAAAVLLSLGLVFGFSYGAGHVAENKTK	4.78
MKRLLVSLRVWMVFLMNWVTPDRKTPAAAVY	7.55
MKRLLSTLLIGIMLLTFAPSCFAKQD	3.09
MKKWMITIAMLILAGIALFVFISPIKSHKT	6.77

Sequence	AmyQ secretion efficiency
MKWMCSTCCAAVLLAGGAAQAEAV	2.63
MKKKIVAGLAVSAVVGAEAKTI	8.76
MKRIRIPMTLKKGAALTIAPLSFASAEEN	7.82
MKWCSICCAAVLLAGGAAQAEAV	3.57
MKRKLLSSLAISALSLGLLVSAPTATFAAES	3.04
MRKKTKNRLISSVLFMVVIMILLFSPGAAGASSK	1.52
MRSYIKVLTMCFLGLILFVPTPLADNS	5.93
MKKFIFNMFIGLLFMLCLAALFTIGFPAQQADAAEA	2.9
MNSYINVLTMCFLGLILFVPTALADNS	1.26
MKKRLIAPMLLSAASLAFFAMVAVIAQAAAY	5.95
MKRIRIPMTLALGAALTIAPLSFASKEEN	6.64
MRHKIITFILAVVVIIIIGNMIGGGGGQEATSK	6.41
MRSYIKVLTMCFLGLILFVPTQTALADNS	2.3
MKSKWMSGLLLVAVGFSFTQVMVHAGTT	5.78
MKMKSGMEQAVSVLLLLSRLPVQASLTSH	7.82
MKKQIITATTAVVLGSTLFAKKRASAQSI	7.26
MKKKLAAGLTASAIVGTTLVVTPYEAATI	5.36
MHLIRAAGAVCLAVVLIAGCRFNEDQHQPEGENT	5.35
MRMLWRSLALCGLALPCAQAAEP	6.75
MLKKIALTLCPAIVGSLLFFTAPPFSASAHVS	4.02
MLKKKWMVGLLAGCLAGFSYNAFATEN	5.96
MRKKRVITCVMAASLTLGSLLPAGYMSAKED	2.67
MRKKTKNRLISSVLSTVVISSLLFKRKAGASSK	7.11
MSKLLAAGIIGLLTVSIASPSFAAEK	3.64

Sequence	AmyQ secretion efficiency
MNFKKTVVSALSISALALSVSGVASGHEI	4.67
MKKGIIRFLLVSFVLFFALSTGITGVQAAPK	1.02
MLKRTSFVSSLFISSAVLLSILLPSGQAHARKR	3.12
MLCKKMLLFSAIASFPVSAQAKDQ	4.84
MFKKHTISLLIIFLLASAVLAKPIEAHTK	2.17
MTLSVIIAGVLTVAAAAMTAKMYATAKGN	6.67
MKSKGSIMACLILFSFTITTFINTETISRFSN	8.63
MKKCLLFLTTIALILKRRTNAFAKNT	7.37
MKWMCSICCAAVLLAGGAAQHEAV	8.16
MKKIVSILFMFGLVMGFSQFQPSTGFAADK	3.91
MKQIMIFLTSFMLLAMTGQTTLAKDV	3.1
MTMLRKIIGWILLLCIIPLFAFTVIASSKEV	6.98
MKKRLIAPMLLSAASLAFFAMSGSFQAAAY	7.38
MKTKTLFIFSAILTLSIFAPNEAFAQTA	1.47
MNLFLIAPMLLSAASLAFFAMSGSAQAAAY	5.75
MKLSVKIAGVLTVAAAAMTAKMYATSKGN	6.78
MKKRFSLIMMTGLLFGLTSPAFAADE	3.46
MTKKAWFLPLVCVLLISGWLAPAASASGQTT	1.87
MKRKRLLSSLAISALSLGLLVSAPTASFAAES	2.64 and 3.51
MKLSVKIAGVLTVAAAAMTAKMYATHKGN	6.71
MKVLLSALLLLLFAFEPSASKKKL	6.2
MKKLVLCVSILAVILSGVALTDED	6.4
MFNRLFRGCGGKQKIMAFTLPNSVYAQKP	7.39
MTMLRKIIGWILLLCIIPLFAFTVIASWKEV	5.23

Sequence	AmyQ secretion efficiency
MTMLRKNMSIIGWILLLCIIPLFAFTVIASGKEV	5.45
MKRIRIPMTLALGAALTIAPLSFAFTASAEEN	3.82
MTLWMTSTLLVVLFTIVTFGLVSPPAALMADKP	5.58
MKRKLLSSLAISALSLGLLVSAPTAWFAAES	9.22
MNLRKILLSSALSLGMLVSAAPVLVTSS	6.87
MRRKKKKVVSALSISALALSVSGVASAHEI	3.9
MKKRFFGPIILAFILFAGAIVIPS	5.76
MKKRFRRRKKRAFILFAGAIAIPS	6.13
MGLGKKLSVAVAASFMSLSISLPGVQCAEG	2.75
MLKRTSFVSSLFISSAVLLSILLPSGQAHADDD	4.33
MKKVLMAFIICLSLILSVLAAPPSGAKAASE	1.49
MKVCQKSIVRFLVSLIIGTFVISVPFMANAQSE	1.52
MKKKLAAGLTASAIVGTTLVVTPAEAKRK	6.02
MRSYIKVLTMCFLGLILFVPTALTDNS	5.81
MRIKQCVICLSLLVFGTTAAHAEET	2.98
MRKNRIKRKKVLSLGLLSFMVTPVSAASK	7.91
MPYRKRRRVLLLLVTGLFMSLFAVTATASAQTG	1.13
MKVPKTMLLSTAAGLLLSLTATSDSAHYV	6.94
MKKCLLFLTTIALILRKRRKKAFAKNT	7.29
MKKVLMAFIICLSLILQGGKGPPGGAKAESV	5.23
MPSCKQLIVCSLAAILLLIPSVSFAADS	3.5
MILRKVLTGSVLSLGLLVSASPAFATSP	1.73
MKKRLILLSAASLAFFAMSGSAQAAAY	2.92
MPYLKRVLLLLVTGLFMSLFAVTATASWQTG	2.84
